Source: patent US20210122797A1

Target: GLP-1 receptor (on pancreatic islets of C57BL/6J mice) (mouse (islets from C57BL/6J mice)) (UniProt O35659)

- Insulin Secretion ng/islet/hour (glucose-stimulated insulin secretion, 16.7 mM glucose + 10 nM peptide) (ng/islet/hour): 5.4
Substance: glucagon like peptide-1 (GLP-1) (ligand)
